# Experimental data reported in patent US20150344570A1 (published 2015).
# T1: FcγRIIa R (FcγRIIa, allotype with Arg at position 131), extracellular domain with C-terminal His tag (human, UniProt P12318 34-217)
# T1 construct: extracellular domain; also called FcγRIIa R type; 2aR
# T1 sequence (looked up): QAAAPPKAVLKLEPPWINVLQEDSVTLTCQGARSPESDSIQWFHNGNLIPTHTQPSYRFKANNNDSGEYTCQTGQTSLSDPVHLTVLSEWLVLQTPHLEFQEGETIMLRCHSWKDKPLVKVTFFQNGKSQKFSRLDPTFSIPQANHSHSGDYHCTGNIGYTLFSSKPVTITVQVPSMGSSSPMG
# B1: GpH7-B3 variant S324_04F/GpL16-k0 (antibody, human IgG1, kappa)
# heavy: not shown
# light: DIVMTQSPLSLPVTPGEPASISCQASESLVHSNRNTYLHWYLQKPGQSPQLLIYKVSNRFSGVPDRFSGSGSGTDFTLKISRVEAEDVGVYYCSQNTHVPPTFGQGTKVEIERTVAAPSVFIFPPSDEQLKSGTASVVCLLNNFYPREAKVQWKVDNALQSGNSQESVTEQDSKDSTYSLSSTLTLSKADYEKHKVYACEVTHQGLSSPVTKSFNRGEC
# notes: also called Ho Ab
# B2: GpH7-A5/GpH7-B3 variant S337_02A/GpL16-k0 (antibody, human IgG1, kappa)
# heavy 1: not shown
# heavy 2: not shown
# light: B1 light
# notes: also called He Ab
# B3: GpH7-B3 variant Y296_19Q/GpL16-k0 (antibody, human IgG1, kappa)
# heavy: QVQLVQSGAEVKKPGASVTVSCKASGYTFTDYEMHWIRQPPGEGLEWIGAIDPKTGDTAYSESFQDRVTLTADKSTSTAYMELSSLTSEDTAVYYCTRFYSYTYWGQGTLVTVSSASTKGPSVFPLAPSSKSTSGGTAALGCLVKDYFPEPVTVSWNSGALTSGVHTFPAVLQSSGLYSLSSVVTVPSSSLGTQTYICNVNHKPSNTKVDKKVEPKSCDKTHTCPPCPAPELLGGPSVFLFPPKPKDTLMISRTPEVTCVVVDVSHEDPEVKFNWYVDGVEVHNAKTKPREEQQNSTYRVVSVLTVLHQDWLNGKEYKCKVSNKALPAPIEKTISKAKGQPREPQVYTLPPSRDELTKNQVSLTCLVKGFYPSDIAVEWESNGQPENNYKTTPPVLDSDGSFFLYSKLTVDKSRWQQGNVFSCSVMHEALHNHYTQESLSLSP
# light: B1 light
# notes: also called Ho Ab
# B4: GpH7-A5/GpH7-B3 variant P331_14T/GpL16-k0 (antibody, human IgG1, kappa)
# heavy 1: not shown
# heavy 2: not shown
# light: B1 light
# notes: also called He Ab
# B5: GpH7-B3 variant Y296_16H/GpL16-k0 (antibody, human IgG1, kappa)
# heavy: not shown
# light: B1 light
# notes: also called Ho Ab
# B6: GpH7-B3 variant S337_11K/GpL16-k0 (antibody, human IgG1, kappa)
# heavy: not shown
# light: B1 light
# notes: also called Ho Ab
# B7: GpH7-A5/GpH7-B3 variant P331_10E/GpL16-k0 (antibody, human IgG1, kappa)
# heavy 1: not shown
# heavy 2: not shown
# light: B1 light
# notes: also called He Ab
# B8: GpH7-B3 variant Y296_13S/GpL16-k0 (antibody, human IgG1, kappa)
# heavy: not shown
# light: B1 light
# notes: also called Ho Ab
# B9: GpH7-B3 variant T335_15Y/GpL16-k0 (antibody, human IgG1, kappa)
# heavy: not shown
# light: B1 light
# notes: also called Ho Ab
# B10: GpH7-A5/GpH7-B3 variant Q295_06M/GpL16-k0 (antibody, human IgG1, kappa)
# heavy 1: not shown
# heavy 2: not shown
# light: B1 light
# notes: also called He Ab
# B11: GpH7-B3 variant S337_07I/GpL16-k0 (antibody, human IgG1, kappa)
# heavy: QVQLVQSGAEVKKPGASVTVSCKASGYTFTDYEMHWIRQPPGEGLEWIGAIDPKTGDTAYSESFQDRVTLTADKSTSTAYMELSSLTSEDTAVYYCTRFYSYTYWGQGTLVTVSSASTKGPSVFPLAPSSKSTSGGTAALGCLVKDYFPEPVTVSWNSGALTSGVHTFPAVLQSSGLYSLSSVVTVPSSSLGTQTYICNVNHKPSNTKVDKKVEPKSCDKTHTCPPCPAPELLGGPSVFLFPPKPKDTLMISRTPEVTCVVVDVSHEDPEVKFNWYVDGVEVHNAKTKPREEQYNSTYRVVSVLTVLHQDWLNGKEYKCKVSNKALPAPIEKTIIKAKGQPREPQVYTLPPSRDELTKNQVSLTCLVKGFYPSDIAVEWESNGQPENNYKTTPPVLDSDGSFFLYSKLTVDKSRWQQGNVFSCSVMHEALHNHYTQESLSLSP
# light: B1 light
# notes: also called Ho Ab
# B12: GpH7-A5/GpH7-B3 variant P331_15Y/GpL16-k0 (antibody, human IgG1, kappa)
# heavy 1: not shown
# heavy 2: not shown
# light: B1 light
# notes: also called He Ab
# B13: GpH7-B3 variant Y296_04F/GpL16-k0 (antibody, human IgG1, kappa)
# heavy: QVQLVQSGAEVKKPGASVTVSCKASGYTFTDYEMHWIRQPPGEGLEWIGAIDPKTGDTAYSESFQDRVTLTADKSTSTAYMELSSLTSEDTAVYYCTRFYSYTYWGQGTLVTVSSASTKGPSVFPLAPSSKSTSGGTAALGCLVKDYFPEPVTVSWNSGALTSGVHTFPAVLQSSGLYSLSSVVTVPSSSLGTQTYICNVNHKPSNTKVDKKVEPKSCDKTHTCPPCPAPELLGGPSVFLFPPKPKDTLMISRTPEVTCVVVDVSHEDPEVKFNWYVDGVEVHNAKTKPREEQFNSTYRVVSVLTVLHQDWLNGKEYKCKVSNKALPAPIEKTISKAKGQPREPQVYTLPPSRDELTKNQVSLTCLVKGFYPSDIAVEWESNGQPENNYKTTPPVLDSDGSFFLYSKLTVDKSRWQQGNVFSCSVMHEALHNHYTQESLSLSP
# light: B1 light
# notes: also called Ho Ab
# B14: GpH7-A5/GpH7-B3 variant P331_07I/GpL16-k0 (antibody, human IgG1, kappa)
# heavy 1: not shown
# heavy 2: not shown
# light: B1 light
# notes: also called He Ab
# B15: GpH7-A5/GpH7-B3 variant Q295_10E/GpL16-k0 (antibody, human IgG1, kappa)
# heavy 1: not shown
# heavy 2: not shown
# light: B1 light
# notes: also called He Ab
# B16: GpH7-B3 variant Y300_18N/GpL16-k0 (antibody, human IgG1, kappa)
# heavy: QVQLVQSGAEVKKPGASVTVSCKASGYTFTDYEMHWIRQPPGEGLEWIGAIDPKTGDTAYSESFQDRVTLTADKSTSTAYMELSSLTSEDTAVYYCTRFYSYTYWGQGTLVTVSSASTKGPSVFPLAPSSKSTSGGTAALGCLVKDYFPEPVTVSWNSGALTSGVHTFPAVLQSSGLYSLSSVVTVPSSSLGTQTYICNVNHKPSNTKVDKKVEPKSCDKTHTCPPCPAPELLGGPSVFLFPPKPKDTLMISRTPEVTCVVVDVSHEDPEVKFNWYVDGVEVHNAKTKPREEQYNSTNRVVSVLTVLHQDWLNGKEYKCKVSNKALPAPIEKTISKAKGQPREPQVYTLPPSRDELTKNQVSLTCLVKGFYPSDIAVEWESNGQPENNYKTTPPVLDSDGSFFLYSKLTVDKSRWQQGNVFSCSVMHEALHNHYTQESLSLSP
# light: B1 light
# notes: also called Ho Ab
# B17: GpH7-B3 variant S337_04F/GpL16-k0 (antibody, human IgG1, kappa)
# heavy: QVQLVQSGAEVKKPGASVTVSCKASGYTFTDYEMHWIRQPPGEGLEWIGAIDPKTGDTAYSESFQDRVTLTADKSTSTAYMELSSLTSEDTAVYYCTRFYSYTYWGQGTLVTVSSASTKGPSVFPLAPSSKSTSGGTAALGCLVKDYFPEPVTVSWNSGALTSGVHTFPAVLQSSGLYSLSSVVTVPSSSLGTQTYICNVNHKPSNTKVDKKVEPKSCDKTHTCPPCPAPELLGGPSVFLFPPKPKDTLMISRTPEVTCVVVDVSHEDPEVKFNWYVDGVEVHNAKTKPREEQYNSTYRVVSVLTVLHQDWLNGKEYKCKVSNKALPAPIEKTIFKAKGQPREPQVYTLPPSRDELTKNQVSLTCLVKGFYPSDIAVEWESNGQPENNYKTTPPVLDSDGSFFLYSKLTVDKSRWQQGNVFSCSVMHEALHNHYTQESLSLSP
# light: B1 light
# notes: also called Ho Ab
# B18: GpH7-B3 variant S337_16H/GpL16-k0 (antibody, human IgG1, kappa)
# heavy: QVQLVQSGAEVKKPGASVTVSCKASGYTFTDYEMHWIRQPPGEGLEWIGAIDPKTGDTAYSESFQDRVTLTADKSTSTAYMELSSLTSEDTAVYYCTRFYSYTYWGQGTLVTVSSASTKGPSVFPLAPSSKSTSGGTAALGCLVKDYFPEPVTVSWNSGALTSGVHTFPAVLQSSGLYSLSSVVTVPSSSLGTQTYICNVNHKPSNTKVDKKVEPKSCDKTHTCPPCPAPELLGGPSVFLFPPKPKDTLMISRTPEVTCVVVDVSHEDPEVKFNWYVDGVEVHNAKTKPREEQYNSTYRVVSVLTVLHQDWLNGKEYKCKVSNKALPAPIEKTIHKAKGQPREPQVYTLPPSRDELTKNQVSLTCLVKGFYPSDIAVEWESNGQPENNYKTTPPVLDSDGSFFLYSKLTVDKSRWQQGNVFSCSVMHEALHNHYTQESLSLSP
# light: B1 light
# notes: also called Ho Ab
# B19: GpH7-B3 variant S337_12R/GpL16-k0 (antibody, human IgG1, kappa)
# heavy: not shown
# light: B1 light
# notes: also called Ho Ab
# B20: GpH7-B3 variant T335_19Q/GpL16-k0 (antibody, human IgG1, kappa)
# heavy: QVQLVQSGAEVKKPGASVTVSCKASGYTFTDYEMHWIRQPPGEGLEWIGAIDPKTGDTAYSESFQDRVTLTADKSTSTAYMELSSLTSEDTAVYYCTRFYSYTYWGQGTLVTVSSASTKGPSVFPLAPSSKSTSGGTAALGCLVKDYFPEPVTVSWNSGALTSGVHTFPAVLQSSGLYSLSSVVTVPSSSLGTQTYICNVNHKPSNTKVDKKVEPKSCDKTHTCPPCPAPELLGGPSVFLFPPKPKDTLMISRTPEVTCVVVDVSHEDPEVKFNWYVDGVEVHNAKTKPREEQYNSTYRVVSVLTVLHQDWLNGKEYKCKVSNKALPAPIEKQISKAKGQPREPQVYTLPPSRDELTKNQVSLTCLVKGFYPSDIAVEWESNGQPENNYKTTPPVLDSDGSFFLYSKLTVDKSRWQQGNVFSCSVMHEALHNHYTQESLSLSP
# light: B1 light
# notes: also called Ho Ab
# B21: GpH7-A5/GpH7-B3 variant P331_13S/GpL16-k0 (antibody, human IgG1, kappa)
# heavy 1: not shown
# heavy 2: not shown
# light: B1 light
# notes: also called He Ab
# B22: GpH7-B3 variant Y296_14T/GpL16-k0 (antibody, human IgG1, kappa)
# heavy: not shown
# light: B1 light
# notes: also called Ho Ab
# B23: GpH7-B3 variant S337_08L/GpL16-k0 (antibody, human IgG1, kappa)
# heavy: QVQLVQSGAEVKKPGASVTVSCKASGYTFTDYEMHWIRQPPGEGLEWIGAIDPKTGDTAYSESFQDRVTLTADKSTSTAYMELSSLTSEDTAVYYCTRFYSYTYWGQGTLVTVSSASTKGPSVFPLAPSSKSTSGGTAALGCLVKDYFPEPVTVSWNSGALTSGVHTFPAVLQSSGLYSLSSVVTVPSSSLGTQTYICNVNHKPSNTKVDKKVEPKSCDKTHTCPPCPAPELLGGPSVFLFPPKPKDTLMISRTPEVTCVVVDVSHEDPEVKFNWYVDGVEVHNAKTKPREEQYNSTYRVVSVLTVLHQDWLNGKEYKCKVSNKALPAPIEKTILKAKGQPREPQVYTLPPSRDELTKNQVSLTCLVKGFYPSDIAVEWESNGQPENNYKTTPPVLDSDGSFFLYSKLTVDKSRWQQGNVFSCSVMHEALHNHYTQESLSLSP
# light: B1 light
# notes: also called Ho Ab
# B24: GpH7-B3 variant Y296_07I/GpL16-k0 (antibody, human IgG1, kappa)
# heavy: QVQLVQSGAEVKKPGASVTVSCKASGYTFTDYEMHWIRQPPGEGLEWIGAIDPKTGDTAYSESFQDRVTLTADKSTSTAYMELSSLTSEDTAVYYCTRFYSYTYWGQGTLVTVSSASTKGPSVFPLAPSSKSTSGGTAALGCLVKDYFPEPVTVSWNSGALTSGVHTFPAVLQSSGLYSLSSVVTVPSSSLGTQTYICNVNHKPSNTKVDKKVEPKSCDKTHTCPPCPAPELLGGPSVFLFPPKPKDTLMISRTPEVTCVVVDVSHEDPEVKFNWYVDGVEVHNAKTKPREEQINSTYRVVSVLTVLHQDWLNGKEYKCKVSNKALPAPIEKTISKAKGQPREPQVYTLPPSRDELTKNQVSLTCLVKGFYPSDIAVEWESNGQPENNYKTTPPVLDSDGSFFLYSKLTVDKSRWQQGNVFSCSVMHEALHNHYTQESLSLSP
# light: B1 light
# notes: also called Ho Ab
# B25: GpH7-A5/GpH7-B3 variant P331_18N/GpL16-k0 (antibody, human IgG1, kappa)
# heavy 1: not shown
# heavy 2: not shown
# light: B1 light
# notes: also called He Ab
# B26: GpH7-B3 variant S337_03V/GpL16-k0 (antibody, human IgG1, kappa)
# heavy: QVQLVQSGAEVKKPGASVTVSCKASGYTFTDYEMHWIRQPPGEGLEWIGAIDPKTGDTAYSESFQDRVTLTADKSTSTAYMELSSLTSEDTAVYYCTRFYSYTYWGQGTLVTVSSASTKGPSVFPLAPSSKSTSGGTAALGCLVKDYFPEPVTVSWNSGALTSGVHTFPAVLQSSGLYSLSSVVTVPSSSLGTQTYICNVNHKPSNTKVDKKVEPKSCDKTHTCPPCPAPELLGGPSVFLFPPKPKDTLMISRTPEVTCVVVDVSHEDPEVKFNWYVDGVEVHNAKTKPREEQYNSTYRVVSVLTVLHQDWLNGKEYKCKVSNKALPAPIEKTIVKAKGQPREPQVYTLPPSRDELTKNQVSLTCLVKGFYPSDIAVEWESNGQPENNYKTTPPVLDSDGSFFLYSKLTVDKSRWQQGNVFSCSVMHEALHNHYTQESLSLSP
# light: B1 light
# notes: also called Ho Ab
# B27: GpH7-A5/GpH7-B3 variant P331_16H/GpL16-k0 (antibody, human IgG1, kappa)
# heavy 1: not shown
# heavy 2: not shown
# light: B1 light
# notes: also called He Ab
# B28: GpH7-B3 variant S337_06M/GpL16-k0 (antibody, human IgG1, kappa)
# heavy: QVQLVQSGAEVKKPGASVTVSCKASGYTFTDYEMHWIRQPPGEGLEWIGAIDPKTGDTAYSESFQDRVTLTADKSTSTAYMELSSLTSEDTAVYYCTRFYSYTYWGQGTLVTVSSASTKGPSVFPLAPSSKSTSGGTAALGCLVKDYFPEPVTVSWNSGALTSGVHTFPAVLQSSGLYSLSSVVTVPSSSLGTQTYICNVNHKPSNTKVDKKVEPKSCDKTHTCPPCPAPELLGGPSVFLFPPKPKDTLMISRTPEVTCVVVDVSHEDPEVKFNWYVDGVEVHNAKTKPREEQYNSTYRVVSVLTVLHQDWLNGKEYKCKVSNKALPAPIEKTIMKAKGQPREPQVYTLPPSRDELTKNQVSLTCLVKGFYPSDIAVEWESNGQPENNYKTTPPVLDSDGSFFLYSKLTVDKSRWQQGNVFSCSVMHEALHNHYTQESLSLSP
# light: B1 light
# notes: also called Ho Ab
# Molecular target: T1, FcγRIIa R (FcγRIIa, allotype with Arg …)
# Test: SPR (Biacore), antibody captured on antigen peptide chip, FcγR as analyte; relative binding
# Description: Analysis of interaction between objective antibody and the FcγR was carried out using Biacore T100 (GE Healthcare). HBS-EP+ (GE Healthcare) was used as the running buffer, and the measurement temperature was set to 25° C. Chips produced by immobilizing the antigen peptide by the amine coupling method to a Series S Sencor Chip CM5 (GE Healthcare), or alternatively, chips produced by allowing preliminarily biotinylated antigen peptides to interact with and immobilize onto a Series S Sensor Chip SA (certified) (GE Healthcare) were used. Antibodies of interest were captured onto an antigen peptide-immobilized chip, and allowed to interact to each FcγR diluted with running buffer. To regenerate and repeatedly use the chip, the antibodies captured on the chip were washed off by reacting 10 mM glycine-HCl, pH 1.5.
Ho/Con_2aR,He/Con_2aR,Binder
101 % of GpH7-B3/GpL16-k0 (=100),–,B1
–,105 % of GpH7-A5/GpH7-B3/GpL16-k0 (=100),B2
88.9 % of GpH7-B3/GpL16-k0 (=100),–,B3
–,104 % of GpH7-A5/GpH7-B3/GpL16-k0 (=100),B4
89.5 % of GpH7-B3/GpL16-k0 (=100),–,B5
94.6 % of GpH7-B3/GpL16-k0 (=100),–,B6
–,113 % of GpH7-A5/GpH7-B3/GpL16-k0 (=100),B7
88.1 % of GpH7-B3/GpL16-k0 (=100),–,B8
107 % of GpH7-B3/GpL16-k0 (=100),–,B9
–,102 % of GpH7-A5/GpH7-B3/GpL16-k0 (=100),B10
103 % of GpH7-B3/GpL16-k0 (=100),–,B11
–,112 % of GpH7-A5/GpH7-B3/GpL16-k0 (=100),B12
106 % of GpH7-B3/GpL16-k0 (=100),–,B13
–,110 % of GpH7-A5/GpH7-B3/GpL16-k0 (=100),B14
–,102 % of GpH7-A5/GpH7-B3/GpL16-k0 (=100),B15
87.6 % of GpH7-B3/GpL16-k0 (=100),–,B16
98.3 % of GpH7-B3/GpL16-k0 (=100),–,B17
107 % of GpH7-B3/GpL16-k0 (=100),–,B18
100 % of GpH7-B3/GpL16-k0 (=100),–,B19
102 % of GpH7-B3/GpL16-k0 (=100),–,B20
–,105 % of GpH7-A5/GpH7-B3/GpL16-k0 (=100),B21
90.3 % of GpH7-B3/GpL16-k0 (=100),–,B22
99.4 % of GpH7-B3/GpL16-k0 (=100),–,B23
83.1 % of GpH7-B3/GpL16-k0 (=100),–,B24
–,105 % of GpH7-A5/GpH7-B3/GpL16-k0 (=100),B25
102 % of GpH7-B3/GpL16-k0 (=100),–,B26
–,114 % of GpH7-A5/GpH7-B3/GpL16-k0 (=100),B27
101 % of GpH7-B3/GpL16-k0 (=100),–,B28
